# Source: the supplement of paper PMC6755084
# B1: F1*; the commonest letter at each place (parent)
# chain: GAGACCGCAACTGAAAAGTTGTTATCACTTGTCGTAAGACACTTTGGATGGGTTGAAGTTCTGCACGTAGAAGCAAAAGGC
# Variants of: B1
# Assay: fraction ligated after 30 min (ligated reads / total reads); higher = more ligase activity
# Conditions: with F1*sub RNA substrate (template-directed ligation), 42 °C
# Method in brief: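 Ribozyme variants were transcribed with T7 from PCR-amplified oligo-pool templates and gel-purified. Ligated and unligated bands, separated on gel, were reverse transcribed with barcoded primers and sequenced on a MiSeq, with core bases filtered at quality ≥20. Fraction ligated per variant was computed as ligated reads divided by total reads.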
row,Variant,fraction ligated
1,GAGACCGCAACTGAAAAGTTGTTATCACTTGTCGTAAGACACGTAGGATGGGTTGAAGTTCTGCACGTAGAAGCAAAAGGC,0.763
2,GAGACCGCAACTGAAAAGTTGTTATCACTTGTCGTAAGACACGTCGGATGGGTTGAAGTTCTGCACGTAGAAGCAAAAGGC,0.319
3,GAGACCGCAACTGAAAAGTTGTTATCACTTGTCGTAAGACACGTGGGATGGGTTGAAGTTCTGCACGTAGAAGCAAAAGGC,0.0141
4,GAGACCGCAACTGAAAAGTTGTTATCACTTGTCGTAAGACACGTTGGAAGGGTTGAAGTTCTGCACGTAGAAGCAAAAGGC,0.76
5,GAGACCGCAACTGAAAAGTTGTTATCACTTGTCGTAAGACACGTTGGACGGGTTGAAGTTCTGCACGTAGAAGCAAAAGGC,0.726
6,GAGACCGCAACTGAAAAGTTGTTATCACTTGTCGTAAGACACGTTGGAGGGGTTGAAGTTCTGCACGTAGAAGCAAAAGGC,0.743
7,GAGACCGCAACTGAAAAGTTGTTATCACTTGTCGTAAGACACTATGGATGGGTTGAAGTTCTGCACGTAGAAGCAAAAGGC,0.849
8,GAGACCGCAACTGAAAAGTTGTTATCACTTGTCGTAAGACACTATGGCTGGGTTGAAGTTCTGCACGTAGAAGCAAAAGGC,0.758
9,GAGACCGCAACTGAAAAGTTGTTATCACTTGTCGTAAGACACTATGGGTGGGTTGAAGTTCTGCACGTAGAAGCAAAAGGC,0.808
10,GAGACCGCAACTGAAAAGTTGTTATCACTTGTCGTAAGACACTATGGTTGGGTTGAAGTTCTGCACGTAGAAGCAAAAGGC,0.82
11,GAGACCGCAACTGAAAAGTTGTTATCACTTGTCGTAAGACACTATGGATGGGTTGCAGTTCTGCACGTAGAAGCAAAAGGC,0.797
12,GAGACCGCAACTGAAAAGTTGTTATCACTTGTCGTAAGACACTATGGATGGGTTGGAGTTCTGCACGTAGAAGCAAAAGGC,0.777
13,GAGACCGCAACTGAAAAGTTGTTATCACTTGTCGTAAGACACTATGGATGGGTTGTAGTTCTGCACGTAGAAGCAAAAGGC,0.801
14,GAGACCGCAACTGAAAAGTTGTTATCACTTGTCGTAAGACACTATGGATGGGTTGACGTTCTGCACGTAGAAGCAAAAGGC,0.796
15,GAGACCGCAACTGAAAAGTTGTTATCACTTGTCGTAAGACACTATGGATGGGTTGAGGTTCTGCACGTAGAAGCAAAAGGC,0.812
16,GAGACCGCAACTGAAAAGTTGTTATCACTTGTCGTAAGACACTATGGATGGGTTGATGTTCTGCACGTAGAAGCAAAAGGC,0.815
17,GAGACCGCAACTGAAAAGTTGTTATCACTTGTCGTAAGACACTATAGATGGGTTGAAGTTCTGCACGTAGAAGCAAAAGGC,0.816

row,Variant,fraction ligated
1,GAGACCGCAACTGAAAAGTTGTTATCACTTGTCGTAAGACACTATCGATGGGTTGAAGTTCTGCACGTAGAAGCAAAAGGC,0.793
2,GAGACCGCAACTGAAAAGTTGTTATCACTTGTCGTAAGACACTATTGATGGGTTGAAGTTCTGCACGTAGAAGCAAAAGGC,0.81
3,GAGACCGCAACTGAAAAGTTGTTATCACTTGTCGTAAGACACTATGAATGGGTTGAAGTTCTGCACGTAGAAGCAAAAGGC,0.773
4,GAGACCGCAACTGAAAAGTTGTTATCACTTGTCGTAAGACACTATGCATGGGTTGAAGTTCTGCACGTAGAAGCAAAAGGC,0.117
5,GAGACCGCAACTGAAAAGTTGTTATCACTTGTCGTAAGACACTATGTATGGGTTGAAGTTCTGCACGTAGAAGCAAAAGGC,0.55
6,GAGACCGCAACTGAAAAGTTGTTATCACTTGTCGTAAGACACTATGGATAGGTTGAAGTTCTGCACGTAGAAGCAAAAGGC,0.643
7,GAGACCGCAACTGAAAAGTTGTTATCACTTGTCGTAAGACACTATGGATCGGTTGAAGTTCTGCACGTAGAAGCAAAAGGC,0.442
8,GAGACCGCAACTGAAAAGTTGTTATCACTTGTCGTAAGACACTATGGATTGGTTGAAGTTCTGCACGTAGAAGCAAAAGGC,0.758
9,GAGACCGCAACTGAAAAGTTGTTATCACTTGTCGTAAGACACTATGGATGGGTTAAAGTTCTGCACGTAGAAGCAAAAGGC,0.827
10,GAGACCGCAACTGAAAAGTTGTTATCACTTGTCGTAAGACACTATGGATGGGTTCAAGTTCTGCACGTAGAAGCAAAAGGC,0.795
11,GAGACCGCAACTGAAAAGTTGTTATCACTTGTCGTAAGACACTATGGATGGGTTTAAGTTCTGCACGTAGAAGCAAAAGGC,0.829
12,GAGACCGCAACTGAAAAGTTGTTATCACTTGTCGTAAGACACTAAGGATGGGTTGAAGTTCTGCACGTAGAAGCAAAAGGC,0.762
13,GAGACCGCAACTGAAAAGTTGTTATCACTTGTCGTAAGACACTACGGATGGGTTGAAGTTCTGCACGTAGAAGCAAAAGGC,0.8
14,GAGACCGCAACTGAAAAGTTGTTATCACTTGTCGTAAGACACTAGGGATGGGTTGAAGTTCTGCACGTAGAAGCAAAAGGC,0.187
15,GAGACCGCAACTGAAAAGTTGTTATCACTTGTCGTAAGACACTATGGAAGGGTTGAAGTTCTGCACGTAGAAGCAAAAGGC,0.779
16,GAGACCGCAACTGAAAAGTTGTTATCACTTGTCGTAAGACACTATGGACGGGTTGAAGTTCTGCACGTAGAAGCAAAAGGC,0.737
17,GAGACCGCAACTGAAAAGTTGTTATCACTTGTCGTAAGACACTATGGAGGGGTTGAAGTTCTGCACGTAGAAGCAAAAGGC,0.785
